This is an account of results in patent EP2336190A2 (Genentech, Inc., dated 2011).

In assay [1] the target is T1, VEGF121 (human, UniProt P15692 27-147).
T1 construct: mature; also called Purified VEGF121
T1 sequence (looked up): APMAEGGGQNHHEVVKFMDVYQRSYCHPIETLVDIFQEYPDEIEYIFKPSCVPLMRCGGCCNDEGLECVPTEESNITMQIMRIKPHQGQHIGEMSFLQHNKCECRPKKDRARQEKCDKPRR
Put plainly: BIAcore SPR, VEGF121 immobilised, Fab in solution. On the technique in general: In SPR one partner is held on a chip, and binding of the other changes the refractive index at the surface.

The target of assay [2] is T1, VEGF121. Put plainly: BIAcore SPR, VEGF121 immobilised.
Assay [3] has as its target T2, VEGF (human, UniProt P15692-4 27-191, limits assumed).
T2 construct: also called human VEGF; vascular endothelial growth factor
Put plainly: competitive phage-ELISA, wt = pY0192. Background: An ELISA detects its analyte on a solid surface through an enzyme-linked reagent.
Target sequence in this assay (P15692 other isoform, or with tags, fused parts or gaps limits assumed): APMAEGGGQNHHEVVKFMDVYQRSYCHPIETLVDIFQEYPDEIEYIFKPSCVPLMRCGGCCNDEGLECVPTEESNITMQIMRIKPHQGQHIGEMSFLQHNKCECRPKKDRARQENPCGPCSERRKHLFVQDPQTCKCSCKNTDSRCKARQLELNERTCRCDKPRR

In assay [4] the target is T2, VEGF. Description: BIAcore-2000 SPR, wt = Y0192.
Target sequence in this assay (P15692 other isoform, or with tags, fused parts or gaps limits assumed): as above
A further assay addresses rhVEGF165 (human, UniProt P15692 27-191). Put plainly: cell-based or functional assay.
For assay [5], the target named is T2, VEGF. Description: KDR-IgG competition ELISA, biotinylated VEGF, 10% human serum.

Positions count from the first letter of the chain named. Names and notes keep the numbering of the source. Bounds are passed on as bounds.

B1: hu2.10 (Fab, V domains shown)
VH: EVQLVESGGGLVQPGGSLRLSCAASGYTFTNYGMNWIRQAPGKGLEWVGWINTYTGEPTYAADFKRRFTISLDTSASTVYLQMNSLRAEDTAVYYCAKYPHYYGSSHWYFDVWGQGTLVTVSS
VL: DIQMTQSPSSLSASVGDRVTITCSASQDISNYLNWYQQKPGKAPKLLIYFTSSLHSGVPSRFSGSGSGTDYTLTISSLQPEDFATYYCQQYSTVPWTFGQGTKVEIK
notes: Phage-selected consensus clone, purified soluble Fab with human constant domains; also called consensus clone hu2.10
For the molecule B1, in the assay with VEGF121 [1], the “KD(A4.6.1)/KD(mut) as headed (values are KD(mut) over KD of the chimera)” value is 35 ratio.

B2: hu2.10V (Fab, V domains shown)
VH: B1 VH
VL: B1 VL with L46V
notes: Soluble Fab with human constant domains; also called hu2.10 with mutation VL Leu->Val
With B2, the “fold improvement in KD over hu2.10” value with VEGF121 [2] was determined as 6 fold. In addition, the “KD(A4.6.1)/KD(mut) as headed (values are KD(mut) over KD of the chimera)” value with VEGF121 [1] came to 5.8 ratio.

B3: pY0192 VH Y27A (Fab, V domains shown)
VH: EVQLVESGGGLVQPGGSLRLSCAASGATFTNYGINWVRQAPGKGLEWVGWINTYTGEPTYAADFKRRFTFSLDTSKSTAYLQMNSLRAEDTAVYYCAKYPHYYGSSHWYFDVWGQGTL
VL: DIQLTQSPSSLSASVGDRVTITCRANEQLSNYLNWYQQKPGKAPKVLIYFTSSLHSGVPSRFSGSGSGTDFTLTISSLQPEDFATYYCQQYSTVPWTFGQGTKVEIKR
Molecule B3 returned an IC50 (mut) / IC50 (wt) with VEGF [3] of 34.

B4: pY0192 VH I34A (Fab, V domains shown)
VH: B3 VH with A27Y, I34A
VL: B3 VL
B4 had an IC50 (mut) / IC50 (wt) in the assay with VEGF [3] of 6.

B5: pY0192 VH P100A (Fab, V domains shown)
VH: B3 VH with A27Y, P100A
VL: B3 VL
Take B5: the IC50 (mut) / IC50 (wt) with VEGF [3] was found to be 38.

B6: pY0192 VH N31A (Fab, V domains shown)
VH: B3 VH with A27Y, N31A
VL: B3 VL
B6 registered an IC50 (mut) / IC50 (wt) in the assay with VEGF [3] greater than 150.

B7: pY0192 VH T53A (Fab, V domains shown)
VH: B3 VH with A27Y, T53A
VL: B3 VL
In the assay with VEGF [3], B7 displayed an IC50 (mut) / IC50 (wt) of 9.

B8: pY0192 VH Y102A (Fab, V domains shown)
VH: B3 VH with A27Y, Y102A
VL: B3 VL
On to B8, for which the IC50 (mut) / IC50 (wt) in the assay with VEGF [3] was 4.

B9: pY0192 VH G33A (Fab, V domains shown)
VH: B3 VH with A27Y, G33A
VL: B3 VL
Take B9: the IC50 (mut) / IC50 (wt) in the assay with VEGF [3] stood at 6.

B10: pY0192 VH W108A (Fab, V domains shown)
VH: B3 VH with A27Y, W108A
VL: B3 VL
In turn, B10 showed an IC50 (mut) / IC50 (wt) in the assay with VEGF [3] greater than 150.

B11: pY0192 VH T59A (Fab, V domains shown)
VH: B3 VH with A27Y, T59A
VL: B3 VL
Molecule B11 displayed an IC50 (mut) / IC50 (wt) with VEGF [3] of 3.

B12: pY0192 VH N35A (Fab, V domains shown)
VH: B3 VH with A27Y, N35A
VL: B3 VL
With B12, in the assay with VEGF [3], the IC50 (mut) / IC50 (wt) came out at 66.

B13: pY0192 VH Y103A (Fab, V domains shown)
VH: B3 VH with A27Y, Y103A
VL: B3 VL
Consider B13, for which the IC50 (mut) / IC50 (wt) with VEGF [3] amounted to 5.

B14: pY0192 VH Y32A (Fab, V domains shown)
VH: B3 VH with A27Y, Y32A
VL: B3 VL
For B14, in the assay with VEGF [3], the IC50 (mut) / IC50 (wt) is greater than 150.

B15: pY0192 VH Y109A (Fab, V domains shown)
VH: B3 VH with A27Y, Y109A
VL: B3 VL
B15 had an IC50 (mut) / IC50 (wt) with VEGF [3] of 19.

B16: pY0192 VH S106A (Fab, V domains shown)
VH: B3 VH with A27Y, S106A
VL: B3 VL
B16 displayed an IC50 (mut) / IC50 (wt) with VEGF [3] greater than 150.

B17: pY0192 VH H101A (Fab, V domains shown)
VH: B3 VH with A27Y, H101A
VL: B3 VL
As for B17, the IC50 (mut) / IC50 (wt) in the assay with VEGF [3] was found to be 4.

B18: pY0192 VH F29A (Fab, V domains shown)
VH: B3 VH with A27Y, F29A
VL: B3 VL
Turning to B18, in the assay with VEGF [3], the IC50 (mut) / IC50 (wt) came out at 16.

B19: pY0192 VH I51A (Fab, V domains shown)
VH: B3 VH with A27Y, I51A
VL: B3 VL
Consider B19, for which, in the assay with VEGF [3], the IC50 (mut) / IC50 (wt) is 4.

B20: pY0192 VH Y54A (Fab, V domains shown)
VH: B3 VH with A27Y, Y54A
VL: B3 VL
In turn, B20 yielded an IC50 (mut) / IC50 (wt) with VEGF [3] of 9.

B21: pY0192 VH T55A (Fab, V domains shown)
VH: B3 VH with A27Y, T55A
VL: B3 VL
Consider B21, for which, in the assay with VEGF [3], the IC50 (mut) / IC50 (wt) turned out to be 4.

B22: pY0192 VH W50A (Fab, V domains shown)
VH: B3 VH with A27Y, W50A
VL: B3 VL
Consider B22, for which the IC50 (mut) / IC50 (wt) in the assay with VEGF [3] was greater than 150.

B23: pY0192 VH F110A (Fab, V domains shown)
VH: B3 VH with A27Y, F110A
VL: B3 VL
In turn, B23 came in with an IC50 (mut) / IC50 (wt) with VEGF [3] of 25.

B24: pY0192 VH N52A (Fab, V domains shown)
VH: B3 VH with A27Y, N52A
VL: B3 VL
As to B24, in the assay with VEGF [3], the IC50 (mut) / IC50 (wt) is greater than 150.

B25: pY0192 VH Y99A (Fab, V domains shown)
VH: B3 VH with A27Y, Y99A
VL: B3 VL
For the molecule B25, the IC50 (mut) / IC50 (wt) with VEGF [3] is greater than 150.

B26: Y0238-5 (Fab, V domains shown)
VH: B3 VH with A27Y, H101Y, Y103I, G104A, S105K
VL: B3 VL
notes: Library YC-81 (VH3) on the pY0192 template; substitutions deduced against Y0192; soluble Fab
For B26, the “Kd (wt) / Kd (mut)” value with VEGF [4] came to 3.2 ratio.

B27: Y0244-4 (Fab, V domains shown)
VH: B3 VH with A27Y, L72I, T74K
VL: B3 VL
notes: substitutions deduced against Y0192; soluble Fab
Take B27: the “Kd (wt) / Kd (mut)” value in the assay with VEGF [4] was determined as 0.9 ratio.

B28: Y0313-3 (Fab, V domains shown)
VH: B3 VH with A27Y, H101Y
VL: B3 VL
notes: Reversion mutant of Y0238-3; soluble Fab
For B28, the “Kd (wt) / Kd (mut)” value with VEGF [4] was 4.5 ratio.

B29: Y0238-3 (Fab, V domains shown)
VH: B3 VH with A27Y, H101Y, S105T
VL: B3 VL
notes: CDRH3 variant (H101Y, S105T) from library YC-81; soluble Fab
Take B29: the “Kd (wt) / Kd (mut)” value with VEGF [4] was no less than 14 ratio.

B30: Y0243-1 (Fab, V domains shown)
VH: B3 VH with A27Y, T28D, N31H, I34M
VL: B3 VL
notes: CDRH1 variant (T28D, N31H) from library HL-265; soluble Fab
B30: the “Kd (wt) / Kd (mut)” value in the assay with VEGF [4] was determined as 4.1 ratio.

B31: Y0238-10 (Fab, V domains shown)
VH: B3 VH with A27Y, H101Y, Y103R, G104N, S105T
VL: B3 VL
notes: as for B26
As for B31, in the assay with VEGF [4], the “Kd (wt) / Kd (mut)” value came out at 4.8 ratio.

B32: Y0238-7 (Fab, V domains shown)
VH: B3 VH with A27Y, H101Y, Y103W, S105T
VL: B3 VL
notes: as for B26
Regarding B32, the “Kd (wt) / Kd (mut)” value in the assay with VEGF [4] was no less than 7.3 ratio.

B33: Y0238-1 (Fab, V domains shown)
VH: B3 VH with A27Y, H101Y, Y103R, S105T
VL: B3 VL
notes: as for B26
In the case of B33, in the assay with VEGF [4], the “Kd (wt) / Kd (mut)” value was 7.3 ratio.

B34: Y0244-1 (Fab, V domains shown)
VH: B3 VH with A27Y, L72V, T74V
VL: B3 VL
notes: only the randomized region is printed, substitutions deduced against Y0192; soluble Fab from E. coli 34B8
With B34, the “Kd (wt) / Kd (mut)” value in the assay with VEGF [4] turned out to be 3.6 ratio.

B35: Y0313-1 (Fab, V domains shown)
VH: B3 VH with A27Y, T28D, N31H, I34M, H101Y, S105T
VL: B3 VL
notes: Combination variant: Y0243-1 plus VH3 H101Y and S105T; soluble Fab
For B35, the “potency in inhibiting VEGF-induced HuVEC DNA synthesis, against the wild-type Fab (Y0192)” value with rhVEGF165 stood at 30 fold. Further, the “Kd (wt) / Kd (mut)” value with VEGF [4] was no less than 20 ratio.

B36: muMAb VEGF A.4.6.1 (antibody, V domains shown)
VH: EIQLVQSGPELKQPGETVRISCKASGYTFTNYGMNWVKQAPGKGLKWMGWINTYTGEPTYAADFKRRFTFSLETSASTAYLQISNLKNDDTATYFCAKYPHYYGSSHWYFDVWGAGTTVTVSS
VL: DIQMTQTTSSLSASLGDRVIISCSASQDISNYLNWYQQKPDGTVKVLIYFTSSLHSGVPSRFSGSGSGTDYSLTISNLEPEDIATYYCQQYSTVPWTFGGGTKLEIKR
For B36, in the assay with VEGF [5], the IgG1/chIgG1 (EC50 ratio) is 0.759.
